Where two headings read alike, the source gives them in different places.

From patent US20050232933A1, “CMV-IE1 peptides and method of use” (priority 2003, published 2005) come the findings set out here.

Assay [1] deals with HLA A*0201 molecule on the surface of T2 cells (human). Put plainly: T2 cell HLA-A2 stabilisation; fold over the mean of no peptide and HLA mismatch B7 peptide.
Assay [2] has the same target. Put plainly: T2 cell HLA-A2 stabilisation, 100 µM peptide for 18 h, BB7.2 flow cytometry. For orientation: Flow cytometry measures light scatter and fluorescence of single cells or particles in a stream.
For assay [3] the target is unchanged. The settings on record: remark: other sources report otherwise.

B1: IE1p81-89 (peptide)
peptide: VLAELVKQI
modifications: not checked
As for B1, the Fold Increase in assay [1] was found to be 2 fold. The peak channel in assay [2] was found to be 495.

B2: IE1p304-312 (peptide)
peptide: LLSEFCRVL
modifications: not checked
On to B2, for which the Fold Increase in assay [1] turned out to be 1.8 fold. This molecule also yielded a peak channel in assay [2] of 433.

B3: (-)control B7 T10M (peptide)
peptide: TPRVTGGGAM
modifications: not checked
In assay [3], B3 came in with a Fold Increase of 1 fold and a peak channel of 232.
